According to patent publication US20240391996A1:

Legend:
[1] = target: recombinant human GH (Pharmaceutical and Medical Device Regulatory Science Society of Japan) (human) (UniProt P01241); test: cell-based or functional assay
[2] = target: recombinant human GH (Pharmaceutical and Medical Device Regulatory Science Society of Japan) (human) (UniProt P01241); test: GH-GHR binding inhibition ELISA: biotin-labeled GH (5.5 ng/mL) on captured GHR-hFc, antibody varied

Sequence of recombinant human GH (Pharmaceutical and Medical Device Regulatory Science Society of Japan) (human) (P01241 27-217 limits assumed): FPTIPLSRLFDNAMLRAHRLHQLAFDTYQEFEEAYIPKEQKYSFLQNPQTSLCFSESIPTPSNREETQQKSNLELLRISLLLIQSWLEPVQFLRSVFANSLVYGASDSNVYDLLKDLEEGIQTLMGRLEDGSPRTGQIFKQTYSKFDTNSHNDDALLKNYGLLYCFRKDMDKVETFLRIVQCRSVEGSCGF

anti-GH mouse mAb (MAB1067, R&D Systems, Inc.) (antibody)
GH-dependent Nb2 cell proliferation inhibitory activity (IC50) [1]: 21.5 nM
IC50 [2]: 6.86 nM
